The results in this text go back to ChEMBL document CHEMBL2073913, “Functional multidrug resistance protein (MRP1) lacking the N-terminal transmembrane domain” (J Biol Chem, 1998).

Substrate in the series: NC(CCC(=O)NC(CNCC(=O)O)CSCCN1C(=O)C=CC1=O)C(=O)O
The series is described as follows: TP_TRANSPORTER: uptake in membrane vesicles from MRP1-expressing Sf9 cells. The class given is functional, cell membranes, Membrane vesicle.

B1: Multidrug resistance-associated protein 1 (Homo sapiens) (protein)
chain: MALRGFCSADGSDPLWDWNVTWNTSNPDFTKCFQNTVLVWVPCFYLWACFPFYFLYLSRHDRGYIQMTPLNKTKTALGFLLWIVCWADLFYSFWERSRGIFLAPVFLVSPTLLGITMLLATFLIQLERRKGVQSSGIMLTFWLVALVCALAILRSKIMTALKEDAQVDLFRDITFYVYFSLLLIQLVLSCFSDRSPLFSETIHDPNPCPESSASFLSRITFWWITGLIVRGYRQPLEGSDLWSLNKEDTSEQVVPVLVKNWKKECAKTRKQPVKVVYSSKDPAQPKESSKVDANEEVEALIVKSPQKEWNPSLFKVLYKTFGPYFLMSFFFKAIHDLMMFSGPQILKLLIKFVNDTKAPDWQGYFYTVLLFVTACLQTLVLHQYFHICFVSGMRIKTAVIGAVYRKALVITNSARKSSTVGEIVNLMSVDAQRFMDLATYINMIWSAPLQVILALYLLWLNLGPSVLAGVAVMVLMVPVNAVMAMKTKTYQVAHMKSKDNRIKLMNEILNGIKVLKLYAWELAFKDKVLAIRQEELKVLKKSAYLSAVGTFTWVCTPFLVALCTFAVYVTIDENNILDAQTAFVSLALFNILRFPLNILPMVISSIVQASVSLKRLRIFLSHEELEPDSIERRPVKDGGGTNSITVRNATFTWARSDPPTLNGITFSIPEGALVAVVGQVGCGKSSLLSALLAEMDKVEGHVAIKGSVAYVPQQAWIQNDSLRENILFGCQLEEPYYRSVIQACALLPDLEILPSGDRTEIGEKGVNLSGGQKQRVSLARAVYSNADIYLFDDPLSAVDAHVGKHIFENVIGPKGMLKNKTRILVTHSMSYLPQVDVIIVMSGGKISEMGSYQELLARDGAFAEFLRTYASTEQEQDAEENGVTGVSGPGKEAKQMENGMLVTDSAGKQLQRQLSSSSSYSGDISRHHNSTAELQKAEAKKEETWKLMEADKAQTGQVKLSVYWDYMKAIGLFISFLSIFLFMCNHVSALASNYWLSLWTDDPIVNGTQEHTKVRLSVYGALGISQGIAVFGYSMAVSIGGILASRCLHVDLLHSILRSPMSFFERTPSGNLVNRFSKELDTVDSMIPEVIKMFMGSLFNVIGACIVILLATPIAAIIIPPLGLIYFFVQRFYVASSRQLKRLESVSRSPVYSHFNETLLGVSVIRAFEEQERFIHQSDLKVDENQKAYYPSIVANRWLAVRLECVGNCIVLFAALFAVISRHSLSAGLVGLSVSYSLQVTTYLNWLVRMSSEMETNIVAVERLKEYSETEKEAPWQIQETAPPSSWPQVGRVEFRNYCLRYREDLDFVLRHINVTINGGEKVGIVGRTGAGKSSLTLGLFRINESAEGEIIIDGINIAKIGLHDLRFKITIIPQDPVLFSGSLRMNLDPFSQYSDEEVWTSLELAHLKDFVSALPDKLDHECAEGGENLSVGQRQLVCLARALLRKTKILVLDEATAAVDLETDDLIQSTIRTQFEDCTVLTIAHRLNTIMDYTRVIVLDKGEIQEYGAPSDLLQQRGLFYSMAKDAGLV
For the protein B1, the Michaelis-Menten constant (Km) turned out to be 155 µM.
